In patent publication US20180112193A1, “CSF1 THERAPEUTICS” (University Court Of The University Of Edinburgh, priority 2013, published 2018):

Columns and labels:
[1] = test system: male C57BI6 mice; experiment: 2/3 partial hepatectomy in mice; format: in vivo, mouse
Description: Forty-eight male C57BI6 mice aged 10-12 weeks underwent either 2/3 partial hepatectomy, paracetamol intoxication or chronic liver injury plus 2/3 partial hepatectomy. 2/3 partial hepatectomy was performed by ligating the left lobe and left and right median lobes. Paracetamol intoxication was performed by intraperitoneal administration of 350 mg/kg paracetamol dissolved in phosphate buffered saline (PBS). Chronic liver injury plus 2/3 partial hepatectomy was performed by eight weeks intraperitoneal carbon tetrachloride administration 1 mcl/g twice weekly dissolved in olive oil followed by ⅔ partial hepatectomy as described above. […] Control mice (n=8 per injury model) received subcutaneous PBS of appropriate volume. […]
Following a midline laparotomy the liver was excised and weighed. Liver weight to body weight ratio was calculated and expressed as a percentage. Livers were fixed in 4% formalin overnight then transferred to 70% ethanol. Livers were then embedded in paraffin blocks and 4 μm sections cut. Immunohistochemistry for Ki67 (a marker of cellular proliferation expressed throughout the cell cycle) was performed following heat mediated antigen retrieval in Tris/EDTA solution at pH9. Hepatocyte proliferation was quantified by counting ki67 positive hepatocytes in 20 high powered fields (400×) per animal and the mean calculated. […]

[2] = test system: weaner pigs; experiment: Preliminary experiment on weaners, circulating monocytes; format: in vivo, pig; conditions: three treatments with 0.4 mg/kg every alternative day
Description: Note that the peak plasma level obtained is only around 100 ng/ml, and it is completely cleared by 20 hours. By contrast, Fc-CSF-1 (FIGS. 9B and C) attains 100-fold higher plasma concentrations and remains elevated for up to 72 hours. A preliminary experiment on weaners determined that three treatments with 0.4 mg/kg with Fc-CSF-1 every alternative day produced a 2-3 fold increase in circulating monocyte numbers.

[3] = test system: male C57BI6 mice; experiment: Chronic liver injury (carbon tetrachloride) plus 2/3 partial hepatectomy in mice; format: in vivo, mouse; conditions: for mouse body weight: p<0.001 at day 4
Description: Forty-eight male C57BI6 mice aged 10-12 weeks underwent either 2/3 partial hepatectomy, paracetamol intoxication or chronic liver injury plus 2/3 partial hepatectomy. 2/3 partial hepatectomy was performed by ligating the left lobe and left and right median lobes. Paracetamol intoxication was performed by intraperitoneal administration of 350 mg/kg paracetamol dissolved in phosphate buffered saline (PBS). Chronic liver injury plus 2/3 partial hepatectomy was performed by eight weeks intraperitoneal carbon tetrachloride administration 1 mcl/g twice weekly dissolved in olive oil followed by ⅔ partial hepatectomy as described above. […] Control mice (n=8 per injury model) received subcutaneous PBS of appropriate volume. All mice were culled on day 4 following injury (partial hepatectomy or paracetamol intoxication).
Following a midline laparotomy the liver was excised and weighed. Liver weight to body weight ratio was calculated and expressed as a percentage. Livers were fixed in 4% formalin overnight then transferred to 70% ethanol. Livers were then embedded in paraffin blocks and 4 μm sections cut. Immunohistochemistry for Ki67 (a marker of cellular proliferation expressed throughout the cell cycle) was performed following heat mediated antigen retrieval in Tris/EDTA solution at pH9. Hepatocyte proliferation was quantified by counting ki67 positive hepatocytes in 20 high powered fields (400×) per animal and the mean calculated.
The effects of Fc-CSF1 on liver regeneration in murine models of acute liver injury (partial hepatectomy; paracetamol intoxication) and acute-on-chronic liver injury (chronic liver injury plus partial hepatectomy) were studieD. […] Control mice (n=8 per injury model) received subcutaneous PBS of appropriate volume.
CSF1-Fc or control was administered to mice immediately following 2/3 partial hepatectomy on a background of 8 weeks carbon tetrachloride induced chronic liver injury (1 mcl/g carbon tetrachloride/mouse 2×/week).

[4] = Pig PK (plasma ELISA); format: in vivo; conditions: weaner pigs; 1.2 mg/kg IV and SC
Description: Porcine CSF-1 Fc-fusion plasma levels were detected using an in-house developed conventional sandwich ELISA utilizing commercially available antibodies. Capture antibody was Abcam ab9693 (0.3 μg/mL) and detection antibody was Rabbit anti-pig IgG (Fc) biotinylated Alpha Diagnostic 90440 (1:5000 dilution). Standard protein was generated and purified in-house (lot 2/24/11 JAS). Standards were added to each plate along with the samples resulting in an 11 point standard range of 2700 ng/mL to […]. This allowed for quantitation of each sample to a standard curve on every assay plate. Assay detection was done using Pierce High Sensitivity Streptavidin-HRP (1:10,000 dilution) and TMB Microwell Peroxidase Substrate System solution (KPL).
Weaner age barrows (<14 kg) were assigned to three treatment groups receiving a single intravenous (IV) or subcutaneous (SC) dose as follows. Three pigs received 0.5 mg/kg CSF-1 non-fusion dosed SC. Two pigs received 1.2 mg/kg CSF-1:Fc fusion dosed IV. Two pigs received 1.2 mg/kg CSF-1:Fc dosed SC. One ml plasma samples were obtained via the V. jugularis in EDTA anticoagulant tubes and placed on ice until centrifuged. The plasma was transferred to sterile tubes stored at ≤−10° C. until analysis. Serial plasma samples were obtained from each animal at pre-dose and 5 minutes, 30 minutes, 1 hour, 2 hours, 4 hours, 6 hours, 8, hours, 24 hours, 48 hours, and 72 hours post-dose. CSF-1 and CSF-1:Fc fusion protein levels were quantitated in plasma using ELISA assays.

[5] = administered immediately following 2/3 partial hepatectomy, vs control
[6] = day 2 following partial hepatectomy, vs controls
[7] = chronic liver injury with 2/3 partial hepatectomy, vs control

B1: Fc-CSF-1: active fragment of porcine CSF-1 (SEQ ID NO:1) linked to the hinge-CH3 region of porcine IgG1a (SEQ ID NO:2) (protein, listed as Sus scrofa)
chain: SENCSHMIGDGHLKVLQQLIDSQMETSCQIAFEFVDQEQLTDPVCYLKKAFLQVQDILDETMRFRDNTPNANVIVQLQELSLRLNSCFTKDYEEQDKACVRTFYETPLQLLEKIKNVFNETKNLLKKDWNIFSKNCNNSFAKCSSQHERQPEGRGTKTKPPCPICPGCEVAGPSVFIFPPKPKDTLMISQTPEVTCVVVDVSKEHAEVQFSWYVDGVEVHTAETRPKEEQFNSTYRVVSVLPIQHQDWLKGKEFKCKVNNVDLPAPITRTISKAIGQSREPQVYTLPPPAEELSRSKVTVTCLVIGFYPPDIHVEWKSNGQPEPEGNYRTTPPQQDVDGTFFLYSKLAVDKARWDHGETFECAVMHEALHNHYTQKSISKTQGK
[1]; [5]
  hepatocyte proliferation: increasing
  liver weight to body weight ratio: significantly increasing
[1]; [6]
  gene expression of oncostatin M (OSM): significantly enhanced
  gene expression of pro-regenerative cytokine 116: significantly enhanced
[1]; following partial hepatectomy, vs controls
  urokinase receptor (UR) expression: significantly elevated
[2]
  increase in circulating monocyte numbers: 2-3 fold
[3]; [7]
  fibrosis assessed by Sirius red quantification: trend to reduction
  liver weight to body weight ratio: increased significantly
  number of proliferating hepatocytes: increased significantly
  mouse body weight: significant increase in mouse weight
[3]; chronic liver injury with 2/3 partial hepatectomy, vs control, listed as CSF1-Fc
  mouse body weight: significant increase in body weight
[3]; chronic liver injury with 2/3 partial hepatectomy, vs control, p=0.08
  survival: trend to improved survival
[3]; day 4 post hepatectomy
  serum ALT: significant reduction
  serum bilirubin: significant reduction
[4]
  plasma concentrations relative to unmodified CSF-1: 100 fold
  time plasma level remains elevated: up to 72 hours
